Laboratory results published in patent US5453371.

Biological target: 4-phenylazo-benzyloxycarbonyl-L-Pro-Leu-Gly-L-Pro-D-Arg.HCl

Substance: Achromobacter collagenase gene product of Vibrio alginolyticus produced in recombinant Escherichia coli JM109 (plasmid pHUC14 or pLCO-1) (enzyme)
- Collagenase activity: 189 U
